# Assay results: patent publication US20250332297A1, “DLL3-SPECIFIC BINDING CONSTRUCTS AND THEIR USE IN RADIOTHERAPY” (MOLECULAR PARTNERS AG, priority 2024, published 2025)
# B1: MAM279 conjugate: SEQ ID NO: 15 conjugated to DOTAM-maleimide, labelled with Pb-212 (natural lead in PK studies) (conjugate)
# chain: GSDLGKKLLEAARAGQDDEVRELLKAGADVNAKDYFSHTPLHLAARNGHLKIVEVLLKAGADVNAKDFAGKTPLHLAADAGHLEIVEVLLKAGADVNAQDIFGKTPADIAADAGHEDIAEVLQKAAGSPTPTPTTPTPTPTTPTPTPTGSDLGKKLLAAAAQGQDDEVRELLKAGANVNAKDLFGYTPLHLAAWRGHLEIVEVLLKAGADVNAKDAAGETPLHLAAWFGHLEIVEVLLKAGADVNAQDLQGKTPADLAAKEGHEDIAEVLQKAAGSGSC
# modifications: DOTAM-maleimide, Pb-212 label; Ankyrin repeat protein with tag (GS-MAM279-tag)
# Assay: Pharmacokinetic analysis in WT BALBc mice (serum, ELISA)
# Type: in vivo, mouse
# Source text: The pharmacokinetic (PK) properties of lead-labelled DARPin (MAM160, MAM279, MAM282, MAM283) conjugates were investigated in mice, including to determine the terminal half-life (or serum half-life) of these conjugates.
# In brief, DARPins MAM279, MAM283, MAM160 and MAM282 were conjugated to the chelator DOTAM, via a C-terminal Cysteine containing tag and a connector, as described in Example 3. The conjugates were then labelled with natural lead (Pb). The protein components of the conjugates corresponded to SEQ ID NOs: 15 to 18, respectively. These lead-labelled DARPin conjugates were injected i.v. at 1 mg/kg into WT BALBc mice. Serum was collected 2 min, 10 min, 30 min, 1 h, 4 h, 24 h, 48 h, and 72 h post-injection. DARPins were detected and measured by ELISA. The data were expressed as the DARPin concentration in serum (nmol/L).
# In brief, lead-labelled MAM279 conjugate, as described in Example 13, was injected i. at 0.1 mg/kg or at 1 mg/kg into the tail vein of WT BALBc mice. Serum was collected 2 min, 10 min, 30 min, 1 h, 4 h, 24 h, 48 h, and 72 h post-injection for MAM279 conjugate injected at 1 mg/kg, and 2 min, 30 min, 4 h, 24 h, 30 h, 48 h, 72 h, 96 h, and 168 h post-injection for MAM279 conjugate injected at 0.1 mg/kg. DARPins were detected and measured by ELISA. The data were expressed as the DARPin concentration in serum (nmol/L).
# In brief, natural lead-labelled MAM279 conjugate, as described in Example 13, was injected i.v. at different doses (0.001 mg/kg, 0.01 mg/kg, 0.1 mg/kg, or 1 mg/kg) into the tail vein of WT BALBc mice. Similarly, unconjugated Rova was injected iv. at 1 mg/kg into the tail vein of WT BALBc mice. Serum was collected 2 min, 10 min, 30 min, 1 h, 4 h, 24 h, 48 h, and 72 h post-injection for MAM279 conjugate injected at 1 mg/kg, and 2 min, 30 min, 4 h, 24 h, 30 h, 48 h, 72 h, 96 h, and 168 h post-injection for MAM279 conjugate injected at 0.1 mg/kg, 0.01 mg/kg and 0.001 mg/kg. Serum was collected 2 min, 30 min, 4 h, 24 h, 30 h, 48 h, 72 h, 96 h, and 168 h post-injection for Rova antibody injected at 1 mg/kg. DARPins and Rova were detected and measured by ELISA. Rova PK characteristics were calculated with time points between 4 h and 168 h and MAM279 conjugate PK characteristics were calculated with time points between 4 h and 72 h. The data were expressed as the DARPin or Rova concentration in serum (nmol/L). Results are shown in FIGS. 19A and 19B and Table 22.
molecule,measurement,setting,value
B1,serum half-life,0.001 mg/kg i.v.,39.9 h
same,serum half-life,0.01 mg/kg i.v.,33.1 h
same,serum half-life,0.1 mg/kg i.v.,32.8 h
same,serum half-life,1 mg/kg i.v.,30.5 h
